Test results taken from patent publication US20260242419A1, “A CYCLIC PEPTIDE FOR TRAPPING INTERLEUKIN-1 BETA” (Merck Sharp & Dohme LLC, priority 2023, published 2026).
Starred links: 1 amine or outer side, 2 acyl side, 3 side chain; linkers in the order of their positions; H or OH if unused. Non-standard residues stand in square brackets, D forms with d. TyrEtNAc = (2S)-3-[4-(2-acetamidoethoxy)phenyl]-2-amino-propanoic acid, CC(=O)NCCOc1ccc(C[C@H](N[*:1])C(=O)[*:2])cc1; 2PyrimAla = (2S)-2-amino-3-(pyrimidin-2-yl)propanoic acid, O=C([C@H](Cc1ncccn1)N[*:1])[*:2]; F4ptCCA = trans-4-[4-(2-amino-2-carboxyethyl)phenyl]cyclohexanecarboxylic acid; Phe(4-(cis-4-COOH-cHex)) = N[C@@H](Cc1ccc([C@H]2CC[C@@H](C(=O)O)CC2)cc1)C(=O)O; dPro(4R-(4-pyridylmethyl)) = O=C(O)[C@H]1C[C@@H](Cc2ccncc2)CN1; Trp(βS-Me,4-F) = C[C@@H](c1c[nH]c2cccc(F)c12)[C@H](N)C(=O)O; Bip(4'-COOH) = N[C@@H](Cc1ccc(-c2ccc(C(=O)O)cc2)cc1)C(=O)O; Ala(1-bicyclo(1.1.1)pentyl) = N[C@@H](CC12CC(C1)C2)C(=O)O; dPro(4R-Bzl(4-F)) = O=C(O)[C@H]1C[C@@H](Cc2ccc(F)cc2)CN1; Ala(pyrimidin-5-yl) = N[C@@H](Cc1cncnc1)C(=O)O; Phe(4-COOH) = N[C@@H](Cc1ccc(C(=O)O)cc1)C(=O)O; Pro(cis-4-F) = O=C(O)[C@@H]1C[C@H](F)CN1; 4Pal = N[C@@H](Cc1ccncc1)C(=O)O; d(αMeS) = C[C@@](N)(CO)C(=O)O; αMeS = C[C@](N)(CO)C(=O)O; Orn = NCCC[C@H](N)C(=O)O; Dab = NCC[C@H](N)C(=O)O; Dap = NC[C@H](N)C(=O)O; Aib = CC(C)(N)C(=O)O

B1: SEQ ID NO: 107 (peptide)
peptide: cyclo([Phe(4-(cis-4-COOH-cHex))][Ala(1-bicyclo(1.1.1)pentyl)][Phe(4-COOH)]G[Pro(cis-4-F)][Trp(βS-Me,4-F)][αMeS]EW[Aib]SQ[Dab]G[dPro(4R-Bzl(4-F))])
SMILES: C[C@@H](c1c[nH]c2cccc(F)c12)[C@@H]1NC(=O)[C@@H]2C[C@H](F)CN2C(=O)CNC(=O)[C@H](Cc2ccc(C(=O)O)cc2)NC(=O)[C@H](CC23CC(C2)C3)NC(=O)[C@H](Cc2ccc([C@H]3CC[C@@H](C(=O)O)CC3)cc2)NC(=O)[C@H]2C[C@@H](Cc3ccc(F)cc3)CN2C(=O)CNC(=O)[C@H](CCN)NC(=O)[C@H](CCC(N)=O)NC(=O)[C@H](CO)NC(=O)C(C)(C)NC(=O)[C@H](Cc2c[nH]c3ccccc23)NC(=O)[C@H](CCC(=O)O)NC(=O)[C@](C)(CO)NC1=O
B2: SEQ ID NO: 108 (peptide)
peptide: cyclo([Bip(4'-COOH)][4Pal][Phe(4-COOH)]G[Pro(cis-4-F)][Trp(βS-Me,4-F)][Aib]SW[Aib][Ala(pyrimidin-5-yl)]Q[Orn]G[dPro(4R-(4-pyridylmethyl))])
SMILES: C[C@@H](c1c[nH]c2cccc(F)c12)[C@@H]1NC(=O)[C@@H]2C[C@H](F)CN2C(=O)CNC(=O)[C@H](Cc2ccc(C(=O)O)cc2)NC(=O)[C@H](Cc2ccncc2)NC(=O)[C@H](Cc2ccc(-c3ccc(C(=O)O)cc3)cc2)NC(=O)[C@H]2C[C@@H](Cc3ccncc3)CN2C(=O)CNC(=O)[C@H](CCCN)NC(=O)[C@H](CCC(N)=O)NC(=O)[C@H](Cc2cncnc2)NC(=O)C(C)(C)NC(=O)[C@H](Cc2c[nH]c3ccccc23)NC(=O)[C@H](CO)NC(=O)C(C)(C)NC1=O
B3: SEQ ID NO: 109 (peptide)
peptide: cyclo([Bip(4'-COOH)][Ala(1-bicyclo(1.1.1)pentyl)][Phe(4-COOH)]G[Pro(cis-4-F)][Trp(βS-Me,4-F)][Aib]SW[Aib][Ala(pyrimidin-5-yl)]Q[Orn]G[dPro(4R-(4-pyridylmethyl))])
SMILES: C[C@@H](c1c[nH]c2cccc(F)c12)[C@@H]1NC(=O)[C@@H]2C[C@H](F)CN2C(=O)CNC(=O)[C@H](Cc2ccc(C(=O)O)cc2)NC(=O)[C@H](CC23CC(C2)C3)NC(=O)[C@H](Cc2ccc(-c3ccc(C(=O)O)cc3)cc2)NC(=O)[C@H]2C[C@@H](Cc3ccncc3)CN2C(=O)CNC(=O)[C@H](CCCN)NC(=O)[C@H](CCC(N)=O)NC(=O)[C@H](Cc2cncnc2)NC(=O)C(C)(C)NC(=O)[C@H](Cc2c[nH]c3ccccc23)NC(=O)[C@H](CO)NC(=O)C(C)(C)NC1=O
B4: SEQ ID NO: 11 (peptide)
peptide: cyclo([TyrEtNAc][4Pal][Phe(4-COOH)]G[Pro(cis-4-F)][Trp(βS-Me,4-F)][Aib]EW[Aib][Ala(pyrimidin-5-yl)]Q[Dap]G[dPro(4R-Bzl(4-F))])
SMILES: CC(=O)NCCOc1ccc(C[C@@H]2NC(=O)[C@H]3C[C@@H](Cc4ccc(F)cc4)CN3C(=O)CNC(=O)[C@H](CN)NC(=O)[C@H](CCC(N)=O)NC(=O)[C@H](Cc3cncnc3)NC(=O)C(C)(C)NC(=O)[C@H](Cc3c[nH]c4ccccc34)NC(=O)[C@H](CCC(=O)O)NC(=O)C(C)(C)NC(=O)[C@H]([C@@H](C)c3c[nH]c4cccc(F)c34)NC(=O)[C@@H]3C[C@H](F)CN3C(=O)CNC(=O)[C@H](Cc3ccc(C(=O)O)cc3)NC(=O)[C@H](Cc3ccncc3)NC2=O)cc1
B5: SEQ ID NO: 110 (peptide)
peptide: cyclo([Bip(4'-COOH)][Ala(1-bicyclo(1.1.1)pentyl)][Phe(4-COOH)]G[Pro(cis-4-F)][Trp(βS-Me,4-F)][Aib]SW[Aib][Orn]Q[Dab]G[dPro(4R-Bzl(4-F))])
SMILES: C[C@@H](c1c[nH]c2cccc(F)c12)[C@@H]1NC(=O)[C@@H]2C[C@H](F)CN2C(=O)CNC(=O)[C@H](Cc2ccc(C(=O)O)cc2)NC(=O)[C@H](CC23CC(C2)C3)NC(=O)[C@H](Cc2ccc(-c3ccc(C(=O)O)cc3)cc2)NC(=O)[C@H]2C[C@@H](Cc3ccc(F)cc3)CN2C(=O)CNC(=O)[C@H](CCN)NC(=O)[C@H](CCC(N)=O)NC(=O)[C@H](CCCN)NC(=O)C(C)(C)NC(=O)[C@H](Cc2c[nH]c3ccccc23)NC(=O)[C@H](CO)NC(=O)C(C)(C)NC1=O
B6: SEQ ID NO: 111 (peptide)
peptide: cyclo([Bip(4'-COOH)][4Pal][Phe(4-COOH)]G[Pro(cis-4-F)][Trp(βS-Me,4-F)][Aib]SW[d(αMeS)][Ala(pyrimidin-5-yl)]Q[Dab]G[dPro(4R-(4-pyridylmethyl))])
SMILES: C[C@@H](c1c[nH]c2cccc(F)c12)[C@@H]1NC(=O)[C@@H]2C[C@H](F)CN2C(=O)CNC(=O)[C@H](Cc2ccc(C(=O)O)cc2)NC(=O)[C@H](Cc2ccncc2)NC(=O)[C@H](Cc2ccc(-c3ccc(C(=O)O)cc3)cc2)NC(=O)[C@H]2C[C@@H](Cc3ccncc3)CN2C(=O)CNC(=O)[C@H](CCN)NC(=O)[C@H](CCC(N)=O)NC(=O)[C@H](Cc2cncnc2)NC(=O)[C@@](C)(CO)NC(=O)[C@H](Cc2c[nH]c3ccccc23)NC(=O)[C@H](CO)NC(=O)C(C)(C)NC1=O
B7: SEQ ID NO: 112 (peptide)
peptide: cyclo([Bip(4'-COOH)][Ala(1-bicyclo(1.1.1)pentyl)][Phe(4-COOH)]G[Pro(cis-4-F)][Trp(βS-Me,4-F)][Aib]SW[d(αMeS)][Ala(pyrimidin-5-yl)]Q[Dab]G[dPro(4R-(4-pyridylmethyl))])
SMILES: C[C@@H](c1c[nH]c2cccc(F)c12)[C@@H]1NC(=O)[C@@H]2C[C@H](F)CN2C(=O)CNC(=O)[C@H](Cc2ccc(C(=O)O)cc2)NC(=O)[C@H](CC23CC(C2)C3)NC(=O)[C@H](Cc2ccc(-c3ccc(C(=O)O)cc3)cc2)NC(=O)[C@H]2C[C@@H](Cc3ccncc3)CN2C(=O)CNC(=O)[C@H](CCN)NC(=O)[C@H](CCC(N)=O)NC(=O)[C@H](Cc2cncnc2)NC(=O)[C@@](C)(CO)NC(=O)[C@H](Cc2c[nH]c3ccccc23)NC(=O)[C@H](CO)NC(=O)C(C)(C)NC1=O
B8: SEQ ID NO: 113 (peptide)
peptide: cyclo([Bip(4'-COOH)][4Pal][Phe(4-COOH)]G[Pro(cis-4-F)][Trp(βS-Me,4-F)][Aib]EW[Aib][2PyrimAla]Q[Dab]G[dPro(4R-Bzl(4-F))])
SMILES: C[C@@H](c1c[nH]c2cccc(F)c12)[C@@H]1NC(=O)[C@@H]2C[C@H](F)CN2C(=O)CNC(=O)[C@H](Cc2ccc(C(=O)O)cc2)NC(=O)[C@H](Cc2ccncc2)NC(=O)[C@H](Cc2ccc(-c3ccc(C(=O)O)cc3)cc2)NC(=O)[C@H]2C[C@@H](Cc3ccc(F)cc3)CN2C(=O)CNC(=O)[C@H](CCN)NC(=O)[C@H](CCC(N)=O)NC(=O)[C@H](Cc2ncccn2)NC(=O)C(C)(C)NC(=O)[C@H](Cc2c[nH]c3ccccc23)NC(=O)[C@H](CCC(=O)O)NC(=O)C(C)(C)NC1=O

biological target: Recombinant human IL-1β (BioLegend 579404) (human, UniProt P01584 117-269); experiment: cell-based or functional assay

First: B1
Second: B2
The “MRC5 IC50” value of the first is 2.6-fold higher: 0.063 nM for the first, 0.024 nM for the second.

B3 and B4 are within 1.5-fold of each other in “MRC5 IC50” value: 0.036 nM for the first, 0.045 nM for the second.

First: B5
Second: B6
The “MRC5 IC50” value of the first is 2-fold higher: 0.038 nM for the first, 0.019 nM for the second.

B7 and B8 are the same in “MRC5 IC50” value: 0.018 nM for the first, 0.018 nM for the second.

In the case of cyclo([F4ptCCA][4Pal][Phe(4-COOH)]G[Pro(cis-4-F)][Trp(βS-Me,4-F)][Aib]EW[Aib][Ala(pyrimidin-5-yl)]Q[Dab]G[dPro(4R-Bzl(4-F))]) [SEQ ID NO: 114], the “MRC5 IC50” value is reported as 0.035 nM.
